Results: patent US12553059B2, “Plant serine proteases” (priority 2018, dated 2026)
Entries after “also recorded” stand apart in the source; their conditions may differ.

B1: SBT1: Nicotiana benthamiana subtilisin-like serine protease comprising SEQ ID No. 2 (protein, listed as Nicotiana benthamiana)
chain: MKGIISLFFCFSLFIVSFILREADSASQAQNNGIYIVYMGAAASSNGGTRHDQARLISSLIRRNKHAVVHSYNNGFSGFAARLSESEAKSMAQRPGVISVFPDPVLQLHTTHSWDFLKYQTDEKINSSPSSGSDSSLIGADTIIGILDTGIWPESESFNDKDMGPIPSRWNGTCMDGQDFGSSKCNKKIVGARFYEESDDSGTKIAGSARDENGHGTHVASTAAGSPVAGASYYGLAAGTATGGSPGSRISMYRVCTTFGCRGSAIMKAFDDAIADGVDVLSLSLGSSPGLEPDFPSNPIAIGAFHAVEKGITVVCSAGNSGPGPKTVVNTAPWILTVAATTIDRDFETDIVLGGNKLIKGGGINFGNMTKSSVYPLIHGNSTKSNDNVSEADARSCVPGSLDENKVKGKIVLCENLDDGEYFPSDKLDEVKSRGGVGFILIDDDERTVAPKFNSFSAGVVSKKDGNEILAYINSTRNPVASILPTVSITKYKPAPVVAYFSSRGPAYNTPNLLKPDITAPGVAILAAWPGNDTSEALPGQKPPIFNLLSGTSMSCPHVSGIAATVKAVNPTWSPSAVKSAIMTTAIQTNNLKAPITTVSGSKATPYDIGAGEASTSGPLKPGLVYETDVADYLQFLCSVGFNISQIKLISITVPEDFSCPKNSTSELVSNMNYPSIAISSLKENEPKKVTRTVTNTGEEASVYTTVIEAPKGLEVQVIPTKLEFTNKSKKLSYDVSFKASSTSKEDLFGSITWTNGKYKVRSPFVVSSN
B2: S11: S. lycopersicum subtilisin propeptide-like inhibitor, SEQ ID No. 33, recombinant from E. coli (protein)
chain: MMKKDQILSSILLFFFLFTAFITTMADSQASSQPSNESKVHIVYTEQPKDQEPEEYHIKTLTSVLGSEEAAKEALLYSYKHAASGFSAKLTAEQVSELSKLPGVLQVVPSQTVQLHTGRV
modifications: Protease inhibitor
B3: SBT2: Nicotiana benthamiana subtilisin-like serine protease comprising SEQ ID No. 14 (protein, listed as Nicotiana benthamiana)
chain: MANHITLCIWLLFFFISIFSLAKSETYIIHMDLSAMPKAFSSHHNWYLTTLSSVSDSSTNHKDFLSSKLVYAYTNAIHGFSASLSPSELEAIKYSPGYVSSIKDISVKIDTTHTSQFLGLNSKSGVWPTSDYGKDIIIGLVDTGIWPESKSYSDDGISEVPSRWKGECESGTEFNSSLCNKKLIGARYFNKGLLANNPNLNISMNSSRDTDGHGTHTSSTAAGSYVEGASYFGYATGTAIGIAPKAHVAMYKALWEEGVYLSDVLAAIDQAITDGVDVLSLSLGIDAIPLHEDPVAIAAFAALEKGIFVSTSAGNEGPYYETLHNGTPWVLTVAAGTVDREFIGTLTLGNGVSVPGLSLYPGNSSSSESSLVYVECQDDKELQKNAHKFVVCLDKNDSVGEHVYNVRNSKVAGAVFITNTTDLEFYLQSEFPAVFLNLQEGDKVLEYIKSNSAPKGKLEFQVTHIGAKPAPKVATYSSRGPSPSCPSILKPDLMAPGALILASWPQQSPVTDVTSGKLFSNFNIISGTSMSCPHASGVAALLKAAHPEWSPAAIRSAMMTTSTALDNTQSPIRDIGNKNAAATPLAMGAGHIDPNKALDPGLIYDATPQDYVNLLCALNFTSKQIKTITRSSSYTCSNPSLDLNYPSFIGFFNGNSSESDPKRIQEFKRTVTNLQDGTSIYTANFTPMGKFKVSVVPEKLVFKEKYEKLSYKLRIEGPIVMDDNVVYGSLSWVETGGNYVVRSPIVATSIKVDPLTGHN
B4: SBT3: other serine protease (Cedzich A et al. 2009) (protein, UniProt O82777 113-761, looked up)
Subtilisin-like protease SBT3: TTHTSDFLKLNPSSGLWPASGLGQDVIVAVLDSGIWPESASFQDDGMPEIPKRWKGICKPGTQFNASMCNRKLIGANYFNKGILANDPTVNITMNSARDTDGHGTHCASITAGNFAKGVSHFGYAPGTARGVAPRARLAVYKFSFNEGTFTSDLIAAMDQAVADGVDMISISYGYRFIPLYEDAISIASFGAMMKGVLVSASAGNRGPGIGSLNNGSPWILCVASGHTDRTFAGTLTLGNGLKIRGWSLFPARAFVRDSPVIYNKTLSDCSSEELLSQVENPENTIVICDDNGDFSDQMRIITRARLKAAIFISEDPGVFRSATFPNPGVVVNKKEGKQVINYVKNSVTPTATITFQETYLDTKPAPVVAASSARGPSRSYLGISKPDILAPGVLILAAYPPNVFATSIGTNILLSTDYILESGTSMAAPHAAGIAAMLKAAHPEWSPSAIRSAMMTTADPLDNTRKPIKDSDNNKAATPLDMGAGHVDPNRALDPGLVYDATPQDYVNLLCSLNFTEEQFKTIARSSASHNCSNPSADLNYPSFIALYSIEGNFTLLEQKFKRTVTNVGKGAATYKAKLKAPKNSTISVSPQILVFKNKNEKQSYTLTIRYIGDEGQSRNVGSITWVEQNGNHSVRSPIVTSPIIEVW

How the values were obtained:
HIV-1 UG37 gp140 = experiment: ELISA antigen binding of 2G12 (I19R 2G12 precomplexed with anti-Fc); details: 2G12 (I19R variant) cleaved by apoplastic proteases
Description: A slightly modified ELISA procedure was used for the analysis of 2G12 containing an I19R mutation in the heavy chain (I19R 2G12). Wells were coated with 500 ng HIV-1 UG37 gp140 in PBS. […] (Doores K J et al. J Virol 84 (2010):10690-10699) prior to appropriate dilution and addition to the wells. Detection of antigen-bound mAb molecules was performed with 0.1 μg/mL goat anti-human kappa chain peroxidase conjugate (SIGMA-ALDRICH, A7164).

monoclonal antibody 2F5 = experiment: In vitro degradation assay with purified proteases, substrate 2F5; type: biochemical; details: purified protease 10-100 μg/mL, pH 5.5
Chain of monoclonal antibody 2F5 (as listed by the source): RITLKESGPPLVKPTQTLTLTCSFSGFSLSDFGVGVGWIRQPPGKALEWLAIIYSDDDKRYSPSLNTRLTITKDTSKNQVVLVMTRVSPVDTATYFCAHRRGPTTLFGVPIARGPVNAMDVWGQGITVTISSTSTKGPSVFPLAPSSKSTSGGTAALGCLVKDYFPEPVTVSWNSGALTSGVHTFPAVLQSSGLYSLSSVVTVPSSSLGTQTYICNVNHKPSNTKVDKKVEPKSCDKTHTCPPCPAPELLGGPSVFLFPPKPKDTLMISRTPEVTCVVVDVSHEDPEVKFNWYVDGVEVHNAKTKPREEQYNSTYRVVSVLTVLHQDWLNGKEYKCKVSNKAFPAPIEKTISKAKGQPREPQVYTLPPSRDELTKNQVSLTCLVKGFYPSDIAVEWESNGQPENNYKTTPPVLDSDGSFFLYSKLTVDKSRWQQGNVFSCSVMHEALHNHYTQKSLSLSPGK
Description: (§1) Leaves of Nicotiana benthamiana […] (Strasser R et al. Plant Biotechnol J 6 (2008):392-402) expressing a subtilisin-like serine protease construct were submerged in extraction buffer (50 mM sodium phosphate/200 mM KCl, pH 7.0) prior to vacuum exposure in a desiccator. Exogenous buffer was removed prior to centrifugation of the leaves for 15 min at 2000 g and 4° C. The recovered solution was then supplemented with 20 mM imidazole and loaded on a 1 mL column of Chelating Sepharose (GE […]) charged with Ni^2+ ions. After washing with the same buffer, the recombinant subtilisin-like serine protease was eluted with 250 mM imidazole in extraction buffer. Protein-containing eluate fractions were pooled, dialysed twice against 2 liters of extraction buffer and then concentrated by ultrafiltration using Microsep Advance centrifugal devices (10K MWCO; PALL CORPORATION).
(§2) After incubation for up to 16 h, reactions were stopped by addition of SDS-PAGE sample buffer.
(§3) For isolation of mAb degradation products, antibodies ([…]) were digested with apoplastic fluid or purified subtilisin-like serine proteases in 500 μL 100 mM sodium acetate (pH 5.5) to completion. After addition of 10 μL settled rProtein A Sepharose 4 Fast Flow beads, the samples were incubated for 2 h at 4° C. under constant agitation. The beads were then collected by centrifugation, washed four times with 500 μL PBS prior to elution of the bound antibody fragments with 100 μL 100 mM glycine (pH 3.0). The eluate was immediately neutralized with 10 μL 1 M Tris/HCl (pH 8.0). This elution/neutralization cycle was repeated four times. […]
(§4) N-terminal sequence analysis of bands blotted on polyvinylidene difluoride membranes (BIO-RAD) was performed by Edman degradation (Niemer M et al. Biotechnol J 9 (2014):493-500). […] Eluted polypeptides were analysed online on a maxis 4G ETD Q-TOF mass spectrometer (BRUKER, Billerica, USA) equipped with an electrospray ionization source and operated in the positive ion mode (m/z range: 400-3800). […]

I19R 2G12 = experiment: In vitro degradation assay with purified proteases, substrate I19R 2G12; type: biochemical; details: for cleavage sites in I19R 2G12 heavy chain (arrows): N-terminal sequencing and mass spectrometry; for cleavage / degradation of I19R 2G12 by purified protease: purified protease 10-100 μg/mL, pH 5.5
Chain of I19R 2G12 (as listed by the source, stated change not applied): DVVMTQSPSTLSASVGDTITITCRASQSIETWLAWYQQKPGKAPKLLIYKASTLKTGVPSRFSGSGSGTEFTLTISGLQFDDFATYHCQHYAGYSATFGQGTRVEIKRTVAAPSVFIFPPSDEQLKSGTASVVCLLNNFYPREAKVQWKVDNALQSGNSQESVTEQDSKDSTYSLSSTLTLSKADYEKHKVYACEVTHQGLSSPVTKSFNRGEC
Chain of I19R 2G12 (as listed by the source, stated change not applied): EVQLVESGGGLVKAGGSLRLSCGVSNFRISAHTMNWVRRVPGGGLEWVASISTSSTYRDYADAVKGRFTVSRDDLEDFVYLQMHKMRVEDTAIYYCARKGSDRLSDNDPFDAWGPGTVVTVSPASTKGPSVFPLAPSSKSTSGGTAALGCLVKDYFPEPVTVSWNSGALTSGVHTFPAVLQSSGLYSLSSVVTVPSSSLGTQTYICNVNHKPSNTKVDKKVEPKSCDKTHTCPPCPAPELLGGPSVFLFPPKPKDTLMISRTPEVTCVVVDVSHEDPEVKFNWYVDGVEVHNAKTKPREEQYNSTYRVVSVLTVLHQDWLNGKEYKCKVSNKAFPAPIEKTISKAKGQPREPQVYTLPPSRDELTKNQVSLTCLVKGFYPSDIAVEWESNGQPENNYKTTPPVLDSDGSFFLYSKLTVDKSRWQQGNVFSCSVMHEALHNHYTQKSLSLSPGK
Description: as §1, §2
For isolation of mAb degradation products, antibodies ([…]) were digested with apoplastic fluid or purified subtilisin-like serine proteases in 500 μL 100 mM sodium acetate (pH 5.5) to completion. After addition of 10 μL settled rProtein A Sepharose 4 Fast Flow beads, the samples were incubated for 2 h at 4° C. under constant agitation. The beads were then collected by centrifugation, washed four times with 500 μL PBS prior to elution of the bound antibody fragments with 100 μL 100 mM glycine (pH 3.0). The eluate was immediately neutralized with 10 μL 1 M Tris/HCl (pH 8.0). This elution/neutralization cycle was repeated four times. All eluate fractions were combined and concentrated by ultrafiltration after buffer exchange into PBS containing 0.02% (v/v) NaN3.
Samples were fractionated by 12.5% SDS-PAGE under reducing conditions and then blotted on nitrocellulose membranes (GE […]).
as §4, with “(2014):493-500). Alternatively, antibodies or their degradation products were digested with PNGase F (ROCHE) to release their N-glycans, reduced with 10 mM DTE (1 h, 56° C.) and then fractionated on a THERMO PROSWIFT RP-4H column (250×0.20 mm) using a Dionex UltiMate 3000 HPLC system (THERMO […]).” for “(2014):493-500).”

PG9 = experiment: In vitro degradation assay with purified proteases, substrate PG9; type: biochemical; details: for cleavage / degradation of PG9 by purified protease: purified protease 10-100 μg/mL, pH 5.5
Chain of PG9 (as listed by the source): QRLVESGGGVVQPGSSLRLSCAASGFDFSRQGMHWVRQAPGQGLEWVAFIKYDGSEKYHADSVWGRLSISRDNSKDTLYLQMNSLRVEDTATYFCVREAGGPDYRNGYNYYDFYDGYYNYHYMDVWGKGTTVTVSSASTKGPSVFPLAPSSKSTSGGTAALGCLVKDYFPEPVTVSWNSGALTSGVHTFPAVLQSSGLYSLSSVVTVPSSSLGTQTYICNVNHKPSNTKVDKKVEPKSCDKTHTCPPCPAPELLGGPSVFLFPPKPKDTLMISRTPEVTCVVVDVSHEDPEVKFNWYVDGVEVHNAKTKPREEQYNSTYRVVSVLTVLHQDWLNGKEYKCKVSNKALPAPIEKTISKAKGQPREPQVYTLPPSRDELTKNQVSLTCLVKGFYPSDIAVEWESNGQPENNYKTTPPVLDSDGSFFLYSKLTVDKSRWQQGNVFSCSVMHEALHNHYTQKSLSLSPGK
Description: as §1, §2, §3, §4

SBT2 (SEQ ID No. 14) = experiment: Kinetic analysis of protease-inhibitor interactions, SBT2; type: biochemical, Nicotiana benthamiana; details: recombinant inhibitor from E. coli; substrate Abz-VILDAVRA-Y(NO2)
Chain of SBT2 (SEQ ID No. 14) (as listed by the source): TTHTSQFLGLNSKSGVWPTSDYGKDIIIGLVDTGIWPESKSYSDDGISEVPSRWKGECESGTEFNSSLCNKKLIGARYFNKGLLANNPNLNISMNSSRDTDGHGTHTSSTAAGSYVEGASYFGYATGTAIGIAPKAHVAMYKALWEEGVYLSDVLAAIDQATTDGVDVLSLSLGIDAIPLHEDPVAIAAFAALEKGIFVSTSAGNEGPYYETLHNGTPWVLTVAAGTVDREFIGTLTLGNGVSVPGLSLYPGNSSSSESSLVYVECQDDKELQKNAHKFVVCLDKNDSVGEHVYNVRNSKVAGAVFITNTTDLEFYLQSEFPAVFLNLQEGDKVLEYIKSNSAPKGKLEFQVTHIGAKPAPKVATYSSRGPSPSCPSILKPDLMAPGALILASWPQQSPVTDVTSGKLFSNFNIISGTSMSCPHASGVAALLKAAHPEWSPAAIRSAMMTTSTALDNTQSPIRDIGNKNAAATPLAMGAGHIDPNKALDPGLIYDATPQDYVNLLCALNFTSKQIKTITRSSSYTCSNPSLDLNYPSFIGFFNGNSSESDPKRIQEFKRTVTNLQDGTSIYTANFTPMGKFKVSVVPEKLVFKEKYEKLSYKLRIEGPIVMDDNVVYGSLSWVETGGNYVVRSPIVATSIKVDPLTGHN
Description: (§5) These assays were performed as described (Hohl M et al., 2017, J. Biol. Chem. 292, 6389-6401). A fluorogenic peptide substrate, Abz-[…]-Y(NO2) (SEQ ID NO: 37), was used for measuring the enzymatic activity of the subtilisin-like serine proteases tested. Recombinant inhibitors (prepared as described in Hohl M et al., 2017, J. Biol. Chem. 292, 6389-6401) were added in serial dilutions. Substrate cleavage was monitored in an Infinite M200 Pro microplate reader as increase in relative fluorescence (λex=320 nm; λem=420 nm). Inhibition constants (Ki) were calculated using the Morrison equation.

SBT1 (SEQ ID No. 2) = experiment: Kinetic analysis of protease-inhibitor interactions, SBT1; type: biochemical, Nicotiana benthamiana; details: recombinant inhibitor from E. coli; substrate Abz-VILDAVRA-Y(NO2)
Description: as §5

Molecule | cleavage / degradation of 2F5 by purified protease (monoclonal antibody 2F5) | cleavage sites in I19R 2G12 heavy chain (arrows) (I19R 2G12) | cleavage / degradation of I19R 2G12 by purified protease (I19R 2G12) | cleavage / degradation of PG9 by purified protease (PG9) | also measured
2G12: neutralizing anti-HIV antibody, heavy chain SEQ ID No. 24, light chain SEQ ID No. 28 |  |  |  |  | antigen-binding activity of cleaved vs intact antibody (ELISA) (HIV-1 UG37 gp140): severely reduced binding; also recorded: much lower antigen-binding activity
trypsin [reference compound] | did not display cleavage activity; also recorded: cannot cleave |  |  |  | 
B1 | degrade; also recorded: can cleave the heavy chains | ↓TV and TV↓VT | degrade; also recorded: can cleave the heavy chains | degrade; also recorded: can cleave the heavy chains | cleavage sites in PG9 heavy chain (arrows) (PG9; N-terminal sequencing and mass spectrometry): DGYYNYHYM↓[…]
B2 |  |  |  |  | binding affinity to / inhibition of SBT2 (SBT2 (SEQ ID No. 14)): high affinities; binding affinity to / inhibition of SBT1 (SBT1 (SEQ ID No. 2)): high affinities
B3 |  | SD↓RL | capable of acting on; also recorded: can cleave the heavy chains | capable of acting on; also recorded: can cleave the heavy chains | 
B4 | did not display cleavage activity; also recorded: cannot cleave |  |  |  | 
